# Reference: publication PMC5731819 (2017)
# B1: E. coli translesion DNA polymerase Pol IV, wild type (protein)
# chain: MRKIIHVDMDCFFAAVEMRDNPALRDIPIAIGGSRERRGVISTANYPARKFGVRSAMPTGMALKLCPHLTLLPGRFDAYKEASNHIREIFSRYTSRIEPLSLDEAYLDVTDSVHCHGSATLIAQEIRQTIFNELQLTASAGVAPVKFLAKIASDMNKPNGQFVITPAEVPAFLQTLPLAKIPGVGKVSAAKLEAMGLRTCGDVQKCDLVMLLKRFGKFGRILWERSQGIDERDVNSERLRKSVGVERTMAEDIHHWSECEAIIERLYPELERRLAKVKPDLLIARQGVKLKFDDFQQTTQEHVWPRLNKADLIATARKTWDERRGGRGVRLVGLHVTLLDPQMERQLVLGL
# modifications: Atto 565 (CoA-linked) conjugated by Sfp to the N-terminal Ybbr tag
# Target: E. coli DNA sliding clamp β (Escherichia coli (strain K12), UniProt P0A988, maleimide-Atto647N on a single cysteine residue (position not given))
# Assay: CoSMoS single-molecule TIRF co-localization (dwell time 14.2 s on clamp-DNA); β clamp loaded by the γ clamp loader (ATP) onto end-blocked primer-template DNA; Pol IIIcore present as competitor
# E. coli DNA sliding clamp β, sequence (P0A988 whole entry): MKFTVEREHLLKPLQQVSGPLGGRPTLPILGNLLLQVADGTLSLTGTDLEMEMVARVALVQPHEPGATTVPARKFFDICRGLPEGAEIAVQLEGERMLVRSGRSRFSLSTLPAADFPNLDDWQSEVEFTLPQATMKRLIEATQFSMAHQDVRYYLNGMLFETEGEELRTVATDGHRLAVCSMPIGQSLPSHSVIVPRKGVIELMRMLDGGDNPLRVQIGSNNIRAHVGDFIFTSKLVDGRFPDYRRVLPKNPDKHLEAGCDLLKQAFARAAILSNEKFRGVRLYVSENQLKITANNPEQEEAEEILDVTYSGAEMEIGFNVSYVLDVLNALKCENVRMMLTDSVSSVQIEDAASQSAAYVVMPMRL
binder,measurement,value
B1,binding result,binds
